# Laboratory results from paper PMC8501640, “Altered Env conformational dynamics as a mechanism of resistance to peptide-triazole HIV-1 inactivators” (Retrovirology, 2021).
# How the values were obtained:
# [1] = target: HIV-1 HxBc2 Env S143N (HIV-1 (HxBc2 strain)) (UniProt P04578)
# [2] = target: HIV-1 HxBc2 Env V255T (HIV-1 (HxBc2 strain)) (UniProt P04578)
# [3] = target: HIV-1 HxBc2 Env V255T/S143N (HIV-1 (HxBc2 strain)) (UniProt P04578)
# [4] = target: HIV-1 HxBc2 gp120 V255I, monomeric (HIV-1 (HxBc2 strain)) (UniProt P04578)
# [5] = target: HIV-1 HxBc2 gp120 V255I/S143N, monomeric (HIV-1 (HxBc2 strain)) (UniProt P04578)
# [6] = target: HIV-1 NL4-3 Env S143N (HIV-1 (NL4-3 strain))
# [7] = target: HIV-1 NL4-3 Env V255I (HIV-1 (NL4-3 strain))
# [8] = target: HIV-1 NL4-3 Env V255I/S143N (HIV-1 (NL4-3 strain))
# [9] = target: HIV-1 NL4-3 Env V255T (HIV-1 (NL4-3 strain))
# [10] = target: HIV-1 NL4-3 Env V255T/S143N (HIV-1 (NL4-3 strain))
# [11] = target: HIV-1 HxBc2 gp120, wild type, monomeric (HIV-1 (HxBc2 strain)) (UniProt P04578); test: ITC
# [12] = target: HIV-1 HxBc2 gp120, wild type, monomeric (HIV-1 (HxBc2 strain)) (UniProt P04578); test: SPR
# [13] = target: HIV-1 HxBc2 gp120 V255I, monomeric (HIV-1 (HxBc2 strain)) (UniProt P04578); test: ITC; VP-ITC, 25 °C, 1 × PBS pH 7.4; 60–100 µM PT titrated in 8 µL steps into 2–8 µM monomeric HxBc2 gp120; single site-binding model
# [14] = target: HIV-1 HxBc2 gp120 V255I/S143N, monomeric (HIV-1 (HxBc2 strain)) (UniProt P04578); test: as above
# [15] = target: HIV-1 HxBc2 gp120 V255I, monomeric (HIV-1 (HxBc2 strain)) (UniProt P04578); test: SPR; Biacore 3000, 25 °C, PBS-P (10 mM phosphate, 150 mM NaCl, pH 7.4, 0.005% P-20); gp120 monomers amine-coupled to CM5 chip (1800–2200 RU), analytes flowed at 50 µL/min; AAR029b and sCD4 fitted to a Langmuir 1:1 model, KR13 to a three-state binding/isomerization model
# [16] = target: HIV-1 HxBc2 gp120 V255I/S143N, monomeric (HIV-1 (HxBc2 strain)) (UniProt P04578); test: as above
# [17] = target: HxBc2 gp120 WT monomer (Human immunodeficiency virus type 1 group M subtype B, UniProt P04578); test: Isothermal titration calorimetry, WT gp120; type: binding, HIV-1; conditions: 25 °C
# Protocol: (§1) Heats were obtained at 25 °C by injection of 8 μL of PT (100 μM) into a sample cell of a VP-ITC containing 1.4 mL recombinant HxBc2 gp120 (6–8 μM). Solid lines represent fits to a single site binding model.
# (§2) The resulting heat changes upon injection were integrated over a time range of 240 s, and the obtained values were fit to a standard single site-binding model using Origin® software.
# [18] = target: HxBc2 gp120 V255I monomer (Human immunodeficiency virus type 1 group M subtype B, UniProt P04578, V255I); test: Isothermal titration calorimetry, V255I gp120; type: binding, HIV-1
# Protocol: as §1, §2
# [19] = target: HxBc2 gp120 V255I/S143N monomer (Human immunodeficiency virus type 1 group M subtype B, UniProt P04578, S143N/V255I); test: Isothermal titration calorimetry, V255I/S143N gp120; type: binding, HIV-1; conditions: 25 °C
# Protocol: as §1, §2
# [20] = target: HIV-1 HxBc2 gp120 WT monomer (Human immunodeficiency virus type 1 group M subtype B, UniProt P04578); test: Surface plasmon resonance, WT gp120; type: binding
# Protocol: (§3) SPR experiments were performed on a Biacore 3000 biosensor (Global Cytiva Lifesciences) at 25 °C using PBS-P (10 mM Phosphate, 150 mM NaCl, pH 7.4, 0.005% P-20) as the running buffer. A CM5 sensor chip was docked and derivatized by amine coupling with HIV-1HxBc2 WT and mutant gp120 subunits using freshly prepared 1:1 50 mM NHS (N-hydroxysuccinamide):200 mM EDC (1-ethyl-3-(3-(dimethylamino)propyl) carbodiimide). […] The equilibrium dissociation constant was calculated as KD = k−1/k1.
# (§4) Rate constants k1 and k-1 are defined as they are in the 1:1 binding model, while k2 and k-2 are first order rate constants describing isomerization and de-isomerization, respectively. Equations describing the time course of the interactions can be found in Additional file 1: Method S1. For the fit, it was assumed that the states Env·PT and Env·PT^∗ had the same SPR signal. Rate constants were determined using a least-squares gradient-step algorithm coded in Visual Basic and implemented through Microsoft Excel.
# [21] = target: HIV-1 HxBc2 gp120 V255I monomer (Human immunodeficiency virus type 1 group M subtype B, UniProt P04578, V255I); test: Surface plasmon resonance, V255I gp120; type: binding
# Protocol: as §3, §4
# [22] = target: HIV-1 HxBc2 gp120 V255I/S143N monomer (Human immunodeficiency virus type 1 group M subtype B, UniProt P04578, S143N/V255I); test: Surface plasmon resonance, V255I/S143N gp120; type: binding
# Protocol: as §3, §4
# [23] = tested on: CEM-GFP cells; test: WST-1 cytotoxicity assay; type: cell-based
# Protocol: The cytotoxicity was determined on CEM-GFP cells via a colorimetric assay to measure the relative proliferation rates of cells in culture. […] After 18 h of incubation, the media containing compounds were discarded and treated with 10% (v/v) WST-1 (a tetrazolium salt) in fresh media for one hour at 37 °C. The cell viability was determined by measuring the absorbance at 450 nm using a Tecan Infinite F50 plate reader.
# Figure S1. […] Data represent means and standard deviations of three independent experiments performed in triplicate.
# [24] = tested on: BaL.01 viruses; set-up: method as in PMID 24330857, PMID 26331669; conditions: ref [16], [21], read-out: EC50 of induced gp120 shedding; cited from earlier work
# [25] = de-isomerization, three-state model
# [26] = isomerization, three-state model
# [27] = V255I and V255I/S143N vs WT gp120
molecule,measurement,setting,value
"KR13, linear peptide triazole thiol",IC50 of inhibition of single-round infection of HOS.T4.X4 cells by HIV-1 pseudotyped with HxBc2 Env (luciferase),[1],0.0014 µM
same,IC50 of inhibition of single-round infection of HOS.T4.X4 cells by HIV-1 pseudotyped with HxBc2 Env (luciferase),[2],0.33 µM
same,IC50 of inhibition of single-round infection of HOS.T4.X4 cells by HIV-1 pseudotyped with HxBc2 Env (luciferase),[3],7.1 µM
same,IC50 of inhibition of single-round infection of HOS.T4.X4 cells by HIV-1 pseudotyped with HxBc2 Env (luciferase),[4],0.091 µM
same,IC50 of inhibition of single-round infection of HOS.T4.X4 cells by HIV-1 pseudotyped with HxBc2 Env (luciferase),[5],4.6 µM
same,IC50 of inhibition of single-round infection of HOS.T4.X4 cells by HIV-1 pseudotyped with NL4-3 Env (luciferase),[6],0.0035 µM
same,IC50 of inhibition of single-round infection of HOS.T4.X4 cells by HIV-1 pseudotyped with NL4-3 Env (luciferase),[7],0.12 µM
same,IC50 of inhibition of single-round infection of HOS.T4.X4 cells by HIV-1 pseudotyped with NL4-3 Env (luciferase),[8],3.7 µM
same,IC50 of inhibition of single-round infection of HOS.T4.X4 cells by HIV-1 pseudotyped with NL4-3 Env (luciferase),[9],0.36 µM
same,IC50 of inhibition of single-round infection of HOS.T4.X4 cells by HIV-1 pseudotyped with NL4-3 Env (luciferase),[10],6.2 µM
same,Kd,[11],0.016 µM
same,dH,[11],-19 kcal/mol
same,stoichiometry N,[11],1.1
same,Kd,[12],0.0011 µM
same,k1 (association step of the three-state model),[12],290000 M⁻¹ s⁻¹
same,k2 (isomerization step of the three-state model),[12],0.007 s⁻¹
same,k-1 (dissociation step of the three-state model),[12],0.0096 s⁻¹
same,k-2 (de-isomerization step of the three-state model),[12],0.00025 s⁻¹
same,dH,[13],-13 kcal/mol
same,stoichiometry N,[13],1
same,dH,[14],-12 kcal/mol
same,stoichiometry N,[14],1.1
same,k1 (association step of the three-state model),[15],230000 M⁻¹ s⁻¹
same,k2 (isomerization step of the three-state model),[15],0.0084 s⁻¹
same,k-1 (dissociation step of the three-state model),[15],0.014 s⁻¹
same,k-2 (de-isomerization step of the three-state model),[15],0.00072 s⁻¹
same,k1 (association step of the three-state model),[16],280000 M⁻¹ s⁻¹
same,k2 (isomerization step of the three-state model),[16],0.009 s⁻¹
same,k-1 (dissociation step of the three-state model),[16],0.018 s⁻¹
same,k-2 (de-isomerization step of the three-state model),[16],0.001 s⁻¹
CC[C@H](C)[C@H](NC(=O)[C@@H](N)CCCNC(=N)N)C(=O)N[C@@H](CC(N)=O)C(=O)N[C@@H](CC(N)=O)C(=O)N[C@H](C(=O)N1CC(n2cc([C]34[CH]5[CH]6[CH]7[CH]3[Fe]6754389%10[CH]4[CH]3[CH]8[CH]9[CH]4%10)nn2)C[C@H]1C(=O)N[C@@H](Cc1c[nH]c2ccccc12)C(=O)N[C@@H](CO)C(=O)N[C@@H](CCC(=O)O)C(=O)N[C@@H](C)C(=O)N[C@@H](CCSC)C(=O)N[C@@H](CCSC)C(=O)NCCC(=O)N[C@@H](CCC(N)=O)C(=O)NCCC(=O)N[C@@H](CS)C(N)=O)[C@@H](C)CC (stereo partly drawn) [KR13],ITC binding stoichiometry n,[17],1.1 ± 0.01
same,ITC −TΔS,[17],7.8 ± 3.0 kcal/mol
same,ITC binding stoichiometry n,"[18]; V255I gp120 (HxBc2), 25 °C",1.0 ± 0.04
same,ITC −TΔS,"[18]; V255I gp120 (HxBc2), 25 °C",2.9 ± 1.5 kcal/mol
same,absolute impact of V255I substitution on enthalpy (ΔH) and entropy (TΔS),"[18]; mutant vs wild type gp120, ITC",5 to 7 kcal/mol
same,ITC binding stoichiometry n,[19],1.1 ± 0.08
same,ITC −TΔS,[19],1.9 ± 0.93 kcal/mol
same,SPR k1,[20]; PT association,2.9 (M^−1 s^−1) × 10^–5
same,SPR k-1,[20]; PT dissociation,9.6 (s^−1) × 10^3
same,SPR k-2,[20]; [25],0.25 (s^−1) × 10^3
same,SPR k2,[20]; [26],7.0 (s^−1) × 10^3
same,"disruption of affinity by escape mutations, SPR",[21]; [27],four to sixfold
same,"effect of escape mutations on de-isomerization kinetics, SPR",[21]; [27],three to fourfold
same,SPR k1,"[21]; V255I gp120, PT association",2.3 (M^−1 s^−1) × 10^–5
same,SPR k-1,"[21]; V255I gp120, PT dissociation",14 (s^−1) × 10^3
same,SPR k-2,"[21]; V255I gp120, de-isomerization, three-state model",0.72 (s^−1) × 10^3
same,SPR k2,"[21]; V255I gp120, isomerization, three-state model",8.4 (s^−1) × 10^3
same,SPR k1,[22]; PT association,2.8 (M^−1 s^−1) × 10^–5
same,SPR k-1,[22]; PT dissociation,18 (s^−1) × 10^3
same,SPR k-2,[22]; [25],1.0 (s^−1) × 10^3
same,SPR k2,[22]; [26],9.0 (s^−1) × 10^3
same,concentration above which cytotoxicity was noted,[23]; 18 h,above 25 μM
same,cells dying,[23]; at a concentration of 125 μM,~ 30%
same,EC50,[24],0.032 µM
